{"source": "IntAct's records for PubMed 24705590", "parents": {"B1": {"name": "Microcin J25 (Escherichia coli), Q9X2V7 (parent)", "chain": "MIKHFHFNKLSSGKKNNVPSPAKGVIQIKKSASQLTKGGAGHVPEYFVGIGTPISFYG"}}}
{"variants_of": "B1", "conditions": "with fhua_ecoli fhuA"}
{"variant": "H42K", "effect of a mutation on the interaction": "decreasing interaction strength"}
